From PMC11610669, “A Spectroscopic Study on the Amyloid‐β Interaction with Clicked Peptide‐Porphyrin Conjugates: a Vision Toward the Detection of Aβ Peptides in Aqueous Solution” (Chembiochem, 2024) come the findings set out here.

A short description of series [1]: CD control: β-sheet propensity of the conjugates alone. The format is physicochemical. To be noted: 10 mM phosphate buffer pH 7.4, room temperature, up to 120 h. How it is done:
The UV‐Vis spectra of porphyrin‐peptide conjugates (5 μM) were recorded in the presence of an equimolar ration of Aβ42 monomers at 0, 24, 48 and 120 h (Figure 2S). […] Therefore, the interaction of the peptide‐porphyrin conjugates with Aβ was further studied using CD spectroscopy. The Aβ42 aggregation process was monitored either in the absence or in the presence of an equimolar amount of the conjugated peptides. A series of CD control experiments were preventively carried out to assess the propensity of the porphyrin‐peptide conjugates to adopt a β‐sheet conformation. The corresponding CD curves are shown in the supplementary material (Figure 3S). […] We then evaluated the ability of the porphyrin‐peptide conjugates to affect the Aβ42’s aggregation process. This was accomplished by running a series of CD experiments on the binary systems in the same experimental conditions as the control CD measurements. A 5 μM Aβ42 sample was used as a positive control of the aggregation process (Figure 3, panel a). In this case, the curve profiles indicate that at 0 h, Aβ42 is predominantly in the random coil conformation, as evidenced by the negative ellipticity around 200 nm. […] The typical dichroic profile characterized by a negative ellipticity at λ=222 nm and a positive band at λ=200 is indicative of this event (Figure 3, panel a).
(§1) Spectra were recorded on a J‐810 spectrometer (Jasco, Japan) under a constant flow of N2 at room temperature. The CD measurements were performed in the wavelength regions (190–260 nm, 195–350 nm and 350–500 nm) using a 1 cm path length quartz cell. All aggregation kinetics were monitored up to 120 hours. The CD spectra were recorded for Aβ42 (5 μM and 20 μM) monomer in the absence or in the presence of porphyrin‐peptide conjugates (5 μM and 20 μM for the 1 : 1 molar ratios). Monomerized samples of Aβ42 (5 μM and 20 μM) were solubilized in 50 μL of NaOH 20 mM (2,5 %) and after were diluted with 1950 μL of 10 mM phosphate buffer at pH 7.4 pure or containing the solubilized conjugates.

A short description of series [2]: UV-Vis self-aggregation of the conjugates. The format is physicochemical. To be noted: UV-Vis 300–650 nm, 5 μM, 10 mM phosphate buffer pH 7.4, room temperature, 0–120 h. How it is done: We first studied the effects of peptide conjugation on the porphyrin chromophore, by UV‐Vis spectra in the region between 300–650 nm. The spectra were recorded using a solution of 5 μM Porphyrin‐peptide conjugate in 10 mM phosphate buffer pH 7.4. The UV‐Vis profile of the porphyrin precursor MCPTPyP, recorded at the same concentration, is also shown for the sake of comparison (Figure 1).
Peptide conjugation influences the spectral features of the porphyrin chromophore as evidenced by the red shift in the absorption maximum in the region of the Soret band region. The Q bands are also affected, particularly in the Cu‐Ph‐Pep and Zn‐Ph‐Pep compounds (Figure 1). In this case the presence of a metal ion within the porphyrin's core might contribute to the observed spectral profile of these compounds. […] The fluorescence spectra of the investigated systems were also acquired in view of the interaction of the studied conjugates with cells (see below biological section).[41] The fluorescence spectra were recorded with the photoexcitation at 425±5 nm, in 10 mM phosphate buffer pH 7.4 and 5 μM concentration. The emission spectrum of the porphyrin precursor MCPTPyP ( Ph ) was also obtained for the sake of comparison.
Spectra were recorded on a Jasco V‐670 Spectrophotometer at room temperature. All measurements were performed in the 300–650 nm wavelength region, in a 10 mM phosphate buffer solution at pH 7.4 using a 1 cm path length quartz cell. The spectra of all the peptide‐porphyrin conjugates, either in the absence or in the presence of equimolar Aβ42, were acquired at 5 μM. In some cases, the same sample solution was used to run the CD spectra. The final concentrations of Aβ42 and peptide conjugates were 5 μM (1 : 1 molar ratio).

In series [3] the test system is Aβ8–20. In words: CD of conjugate with Aβ8–20 fragment. It counts as binding. As to the method: To better visualize how the induced signal increases as Aβ42 adopts the β‐sheet conformation, a comparative graph displaying the absolute value of the CD intensities at the maximum absorption wavelength for each derivative, either in the presence or absence of Aβ42 over the same time interval, is reported in the SI (Figure 7S). […] (Figure 8S panel a). […] We assume that the conjugate Zn‐Ph‐Pep conjugate could similarly interact with the Aβ8–20 fragment.
as §1

Series [4] concerns the target Aβ42 (Homo sapiens, UniProt P05067). The series can be described thus: bis-Ans fluorescence anti-fibrillogenic assay. It counts as biochemical. The note with it: Aβ42 20 μM, 1:1, 60 μM Bis-Ans solution, phosphate buffer pH 7.4, 37 °C, 65 h, ex/em 385/510 nm, triplicate. From the text:
We also carried out fluorescence assays to evaluate the anti‐fibrillogenic ability of the porphyrin‐peptide conjugates. We used the bis‐Ans (4,4’‐Dianilino‐1,1’‐binaphtyl‐5,5’disulphonic acid) as a chromophore instead of the typical Th−T (Thioflavin‐T), to avoid any potential interference that might occur between the porphyrin and Th−T, in both the excitation and emission wavelength regions. The bis‐Ans probe is sensitive to Aβ fibril formation, and it specifically binds to solvent‐exposed hydrophobic surfaces leading to an increase in its fluorescence emission maximum at 510 nm, in our case.[47] The bis‐Ans fluorescence kinetics were recorded with Aβ42 (20 μM) alone or in the presence of the porphyrin‐peptide conjugates at a 1 : 1 molar ratio. The kinetic profiles of the porphyrin‐peptide conjugates in the absence of Aβ42 were also acquired for comparison (Figure 4S). […] The obtained fluorescence intensities were compared with the values obtained for Aβ42 alone.
Bis‐Ans fluorescence kinetics were measured on a Flash Thermo Varioskan spectrofluorometer with excitation and emission at 385 and 510 nm, respectively. Aβ42, alone or in the presence of the porphyrin‐peptide conjugates in a 1 : 1 molar ratio, was dissolved in 10 mM aq NaOH (30 μL). […] Readings were taken every 10 min, after weak shaking for 10 s. The fluorescence intensity was monitored for 65 h. […]

Chain of Aβ42 (P05067 672-713 limits assumed): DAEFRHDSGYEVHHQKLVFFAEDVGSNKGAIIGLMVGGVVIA

On to `COC(=O)[C@H](Cc1cn(CCCC[C@H](NC(=O)CNC(C)=O)C(=O)N2CCC[C@H]2C(=O)NCC(=O)N[C@@H](CCCCN)C(=O)N[C@@H](CC(C)C)C(=O)N[C@H](C(=O)N[C@@H](Cc2ccccc2)C(=O)N[C@@H](Cc2ccccc2)C(N)=O)C(C)C)nn1)NC(=O)c1ccc(-c2c3nc(c(-c4cc[n+](C)cc4)c4ccc([nH]4)c(-c4cc[n+](C)cc4)c4nc(c(-c5cc[n+](C)cc5)c5ccc2[nH]5)C=C4)C=C3)cc1` [Zn‐Ph‐Pep], for which the “propensity to adopt β-sheet conformation (conjugate alone)” value in series [1] is given as “being faster in this process”. In addition, the self-aggregation result in series [2] is listed as “slight propensity to self‐aggregation”. Further, the “conformation of Aβ8–20/conjugate mixture” value in series [3] (Far-UV CD) is “significant amount of random coil conformation”. Also, the “induced CD signal in visible region with Aβ8–20” value in series [3] (same experimental conditions as with Aβ42) is “no induced CD signal is clearly detectable”. Further, in series [4], the “effect on Aβ42 fibril formation (bis-Ans fluorescence)” value is recorded as “might support or even accelerate Aβ42’s fibril formation”.
